The values below come from paper PMC5785340, “MaRAP2‐4, a waterlogging‐responsive ERF from Mentha, regulates bidirectional sugar transporter AtSWEET10 to modulate stress response in Arabidopsis”.

The target of the series is MaRAP2-4 (Mentha arvensis, UniProt A0A1Z2X6Y3 1-315). Kind of series: EMSA; DIG Gel Shift Kit 2nd Generation (Roche), manufacturer's protocol; buffer, pH and temperature not stated. To be noted: protein: recombinant; tags: GST (pGEX-4T2); label: DIG. (A gel shift assay detects complexes by their altered migration in electrophoresis.)
Chain of MaRAP2-4 (A0A1Z2X6Y3 entry or part of it): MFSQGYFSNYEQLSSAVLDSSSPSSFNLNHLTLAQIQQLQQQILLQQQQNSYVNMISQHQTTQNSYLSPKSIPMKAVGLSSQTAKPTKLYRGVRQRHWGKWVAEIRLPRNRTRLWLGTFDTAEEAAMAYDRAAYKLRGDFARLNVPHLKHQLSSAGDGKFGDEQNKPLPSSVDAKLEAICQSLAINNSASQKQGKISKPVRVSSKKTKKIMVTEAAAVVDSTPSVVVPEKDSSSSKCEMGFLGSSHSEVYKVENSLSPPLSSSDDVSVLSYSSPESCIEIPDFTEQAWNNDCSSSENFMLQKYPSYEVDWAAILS

B1: AtSWEET10 promoter probe with overlapping DRE and GCC (dsDNA)
DNA 1: ATGATTCACGGCCGCCGACGCCGTTCGTTACCA
DNA 2: TGGTAACGAACGGCGTCGGCGGCCGTGAATCAT
For B1, the binding result is “binds”.

B2: AtSWEET10 promoter probe with DRE only (dsDNA)
DNA 1: AATTTCGCATGCCGACATCAATGTGCGCACAACA
DNA 2: TGTTGTGCGCACATTGATGTCGGCATGCGAAATT
For B2, the binding result was “binds”.
